Test [1] has as its target T1, CD28-Ig (Homo sapiens, UniProt P10747). Also on record: Ig fusion partner. To be noted: read-out: approximate Kd of soluble CD80-Ig binding to immobilized CD28-Ig; Linsley et al. 1991; cited from earlier work.
Test [2] deals with T2, human CD28 on PCD28.1.s2.1 cells (Homo sapiens, UniProt P10747).
T2 construct: expressed in transfected cells; host or cells: PCD28.1.s2.1 (PE30.2 murine T-cell hybridoma transfected with pHbactCd28neo)
The test can be described thus: Flow cytometry binding to cells expressing cell-surface CD28. In kind it is cell-based. To be noted: on ice. As to the method:
Non-adherent CD28 expressing cells (PCD28.1.s2.1) were used for this assay format. PCD28.1.S2.1 cells were created by transfection of PE30.2 cells [D. Emilie et al., Eur. J. Immunol., 19:1619-1624 (1989)] with a vector for expression of human CD28 [D. Couez et al., Molecular Immunology, 31:47-57 (1994)]. All incubations were carried out on ice. Unlabelled CD80- and CD86-Igαtp or CD80 and CD86-Ig were incubated with the cells in binding buffer consisting of PBS w/o Ca+2/Mg+2, 0.2% bovine serum albumin and 0.1 % sodium azide. After washing twice in binding buffer, bound fusion proteins were detected with a 1:2000 dilution of a goat anti-human polyclonal antibody labeled with FITC (Flourescein isothiocyanate, Southern Biotech). Following two additional washes in binding buffer, the cells were resuspended in binding buffer and analyzed on a FACSort analyzer (Becton-Dickinson) using a 488 nm laser.
(Flow cytometry measures light scatter and fluorescence of single cells or particles in a stream.)

Test [3] addresses T1, CD28-Ig. The test can be described thus: Isothermal titration calorimetry, binding to CD28-Ig in solution. Also on record: native leader and extracellular domain peptide of CD28 and CD80 were grafted onto a human IgG1 heavy chain Fc region; human IgG1 Fc (hinge/CH2/CH3); made in house; host or cells: CHO cells. The source says: (§1) The solution binding properties of the hexameric and standard Ig fusion proteins of CD80 and CD86 were compared using isothermal titration calorimetry, essentially as described previously for other proteins [K. Johanson et. al., J. Biol. Chem, 270: 9459-9471 (1995), and references therein].
This lower affinity for CD28 than for CTLA4 is in agreement with other reports [P. S. Linsley et. al., Immunity 1: 793-801 (1994)].
(In general: Isothermal titration calorimetry measures the heat released or taken up as one component is titrated into another.)

In test [4] the test system is PCD28.1.S2.1 cells (human CD28, lacZ fused to the IL-2 promoter). Briefly: FDG assay for IL-2 promoter activity (lacZ reporter). The class given is cell-based, murine. The note with it: added directly to PC28.1.s2.1 cells in solution (FIG. 20A). As to the method: A second assay for agonist activity measured induction of IL-2 promoter activity, rather than production of IL-2 protein. The PCD28.1.S2.1 cells described above also contain lacZ fused to the IL-2 promoter. Thus, the PCD28.1.S2.1 cell line provides a convenient system for measuring IL-2 promoter activity upon CD28-mediated T cell simulation. T cells were activated as described above for the CTLL-2 assay, spun down, resuspended in 50 μl of media+50 μl of PBS, lysed with 10 μl of 20% Triton X-100, and supplemented with 25 μl of 10 mM FDG (Molecular Probes), a fluorogenic substrate for b-galactosidase. Hydrolysis of FDG first yields fluorescein monogalactoside (FMG) and then the highly fluorescent product fluorescein. Cell lysates were incubated with FDG for 60 min., and the levels of fluorescence were measured by Fluoroscan (MTX Lab Systems, Inc).
IL-2 promoter activity and IL-2 levels were measured similarly to that described in parts A and B above, except that proliferation of the reader CTLL-2 cells was measured by ^3H-thymidine incorporation.

The next test has as its target T3, CTLA4-Ig (Homo sapiens, UniProt P16410, F162A).
T3 construct: junction spanning the end of the CTLA4 extracellular domain and the hinge region; human IgG1 Fc (hinge/CH2/CH3); made in house; host or cells: CHO cells (by 'in a similar manner' to CD28-Ig)
Briefly: Isothermal titration calorimetry, binding to CTLA4-Ig in solution.
Description: as §1
The error in Kd's is about a factor of 2 and the error in molar binding ratio's is 10-20%. […] The molecular masses of CD80-Igαtp and CD86-Igαtp were estimated as 6× the mass of the respective Ig proteins plus 40,000 Da. contributed by the twelve tailpiece segments.

Here are results for 3 substances from patent publication US20020147326A1, “Hexameric fusion proteins and uses therefor” (SmithKline Beecham Corporation, priority 1996, published 2002).

For orientation: Kd means the constant that tells how readily two partners part at equilibrium.

T3 sequence (P16410 38-162 F162A): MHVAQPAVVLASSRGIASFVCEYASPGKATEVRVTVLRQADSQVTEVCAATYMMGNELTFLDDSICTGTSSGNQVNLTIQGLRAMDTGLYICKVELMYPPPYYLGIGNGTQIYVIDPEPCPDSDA

Turning to “CD80-Ig: CD80 leader and extracellular domain grafted onto human IgG1 heavy chain Fc region; monomeric Ig fusion (Ig homodimer) [reference compound]”, in the test with CD28-Ig [1], the dissociation constant (Kd) was approximately 200 nM. In addition, the “binding to CD28 positive cells” value in test [2] is listed as “no binding”. Moreover, the “interaction with CD28-Ig in solution by calorimetry” value (from here on “interaction with CD28-Ig”) with CD28-Ig [3] was “not detected”. Also, the IL-2 promoter activity result in test [4] is “no stimulation”.

Turning to “CD80-Igαtp: CD80 leader and extracellular domain linked to human IgG1 hinge/CH2/CH3 and terminating in human IgA1 tailpiece (αtp)”, the “binding to CD28 positive cells” value in test [2] is “specific binding”. For the same substance, the “ratio of Igαtp to Ig titration equivalence points (molar ratio)” value with CTLA4-Ig was “about 6”. The “interaction with CD28-Ig” value in the test with CD28-Ig [3] is “did not show detectable binding”. Further, in test [4], the IL-2 promoter activity result is “dose dependent stimulation”.

As for “CD86-Igαtp: CD86 leader and extracellular domain linked to human IgG1 Fc and terminating in human IgA1 tailpiece (αtp)”, the “binding to CD28 positive cells” value in test [2] is given as “specific binding”. In addition, the “interaction with CD28-Ig” value in the test with CD28-Ig [3] is reported as “did not show detectable binding”. The IL-2 promoter activity result in test [4] is listed as “dose dependent stimulation”.
